Experimental data from US20250134019A1, “TRIKETONE DIOXYGENASE VARIANTS FOR HERBICIDE TOLERANCE” (Monsanto Technology LLC, priority 2022, published 2025).
Changes are numbered by the printed parent chain. Numbers in names are those of the source.

B1: TDO_6: Os.TDO variant, SEQ ID NO:38, G242S-P256E relative to D08 (protein)
chain: MADESWRAPALVQELAAKGVEEPPSRYLLREQDRPDVKLVAAELPEPIPVVDLGRLDGAEEATKLRVALQNWGFFLLTNHGIEASLMDDVMNLSREFFNQPIERKQKFSNLIDGKHFQIEGYGTDRVVTQDQVLDWSDRLHLRVEPKEEQDLAFWPDHPESFRDVLHKYASGCKRIRDDIIQAMAKLLELDEDYFLDRFNEAPTFARFNYYPPCPRPDLVFGIRPHSDGGLLTILLVDKDVSGLQVQRDGKWSNVEATPHTLLINLGDTMEVMSNGIFKSPVHRVVTNAEKERISLAMLYSVNDEKDIEPAAGLLDENRPARYRKVSVEEFRAGIFGKFSRGERYIDSLRI
modifications: TDO variant sequence
B2: Ta.TDO: TDO homolog from Triticum aestivum, SEQ ID NO:10 (A4S from codon optimization) (protein, listed as Triticum aestivum)
chain: MASSDESPMVRPTVQELASAGVEEPPRQYVLPEQDRHGDLLAADEFPEPIPLIDLSRLTDADEAERLRAALQTWGFFLATNHGIEGSLMDAMMSVSREFFRQPAEEKQKCSNLVDGNGKDYQVEGYGSDKVVSEDQVLNWSDRLHLRVEPEDERNFAKWPSHPESFRDVLKEYASRTKEIRDLVLRSIAKLLEIDEDYFVNQISNKASGFARFNYYPPCPRPDLVLGLRAHSDGGLLTILFNDDTVGGLQVQRDGRWYNVSAKPHTLLINLADCLEIMNNGIFTSPIHRVVTNIKKDRLSLAVFYAVDAETMLEPAPGLLDDKRPPRYRKMLAKDFVAGLFEHFRQGKRFINTLKI
B3: ANDge.TDO: TDO homolog from Andropogon gerardii, SEQ ID NO:12 (protein, listed as Andropogon gerardii)
chain: MASSSWRVPTPVQELAAGVVEPPSQFVLQEQDRPESLLLAADMPEPIPVIDLSRLSAADEASKLQSALQTWGLFLVTNHGIEASLMDEVMAASRDFFHQPLQEKQKYSNLIGGKRFQMEGYGNDMVTSQDQILDWQDRLQLRVEPEDERNLAYWPKHPDSFRDLLHEYASKTKKVRDNLLRAMGKILELGDDYFISQIGEKASAVARFNYYPPCPRPELVFGIKPHSDGGAVTILLVDNDVGGLQVQKDGIWYTVPSKPHTLVVNLADSMEIMNNGIFKSPVHRVVTNAEKERLSLAMFYGVEGQKMLEPAAGLLGEDRPARYRKIKAADYIVGLRQGIAKGQRFIETLKI
B4: Cl.Col.TDO1: TDO homolog from Coix lacryma-jobi, SEQ ID NO:14 (protein)
chain: MASSSWKVPTPVQELAATLEEPPSRYVLREKDRPSSPLVADDMPEPLPVINLSRLSEDAAEAAKLEAALQSWGLVLVTNHGIETSLMDDVMDTSREFFNQTLEEKQKYSNLIEGKRFQMEGYGNDRVSTEHQILNWNDRLHLKVAPDDERNYTHWPKHPESFRDVLHEYTLKTKKIRDNICSNGQDIGARFNYYPPCPRPDLVNGVQPHSDAGVLTILLVDKEIRGLQVQRDGIWYNVPRKPYTLLINLGDVMEIMSNGIFKSPVHRVVTNTEKERISLAMFYGVDAENVLEPAAGLLDEKRPARYRKVEITDFVAGVHEHFSRGTRFIESLKI
modifications: Coix lacryma-jobi
B5: Cl.Col.TDO2: TDO homolog from Coix lacryma-jobi, SEQ ID NO:16 (protein)
chain: MASSSWRVPTPVQELAAGVVEPPSQFVLQEQDRPESLLLATDMPEPIPVIDLSRLAAADEASKLRSALQTWGLFLVTNHGIEASLMDDVMAASRDFFYQPLEEKQKYSNLVGGKRFQMEGYGNDMVASQDQVLDWQDRLQLRVEPEDERNLAYWPKHPDSFRDLLHEYASKTKKVRDNVLQAMGKLLELGEDYFISQIGGKASAIARFNYYPPCPRPELVFGIKPHSDGGAVTILLVDNDVGGLQVQKDGIWYTVPSKPHTLVVNLGDSMEILNNGIFKSPVHRVVTNAEKERLSLAMFYGVEGQKVLEPAAALLGEERPARYRKIKAADYIVGLRQGIARGNRFIETLKI
modifications: Coix lacryma-jobi
B6: Si.TDO: TDO homolog from Setaria italica, SEQ ID NO:8 (protein, listed as Setaria italica)
chain: MANESWKIPMLVQELAAKVQEPPSRYVQPEQQHPVSLVVGAEKPEAIPVIDLSRLLAADGADEEGSKLRLALQSWGLFLIDNHGIETSLMDDLINASREFFHLPLEEKQKCSNLIDGKHYQVEGYGNDPVASKDQILDWLDRLHLRVEPEDERNLVHWPEHPNSFRALLHKYTLNCKRIKDRILWAMAKSLGLDEDYIVAQFSGKAPSFARFNYYPPCPRPDIVFGAKPHSDGGVLTILLMDKDVGGLQVLRDGVWHNVPTSPHRLLVNIGDFSEIMSNGIFKSPVHRVVTNMGKERISLAMFHGLDPEKEIEPATALLHEKQLARYRKIKAKVYLAGFYEHFCRGTRFIDSEDLREVA
B7: TDO_3: Os.TDO variant, SEQ ID NO:32, P35S-G242S relative to D08 (protein)
chain: B1 chain with P35S, E256P
modifications: TDO variant sequence
B8: TDO_4: Os.TDO variant, SEQ ID NO:34, H116N-G242S relative to D08 (protein)
chain: B1 chain with H116N, E256P
modifications: TDO variant sequence
B9: TDO_5: Os.TDO variant, SEQ ID NO:36, E120Q-G242S relative to D08 (protein)
chain: B1 chain with E120Q, E256P
modifications: TDO variant sequence
B10: TDO_7: Os.TDO variant, SEQ ID NO:40, G242S-S274C relative to D08 (protein)
chain: B1 chain with E256P, S274C
modifications: TDO variant sequence
B11: TDO_8: Os.TDO variant, SEQ ID NO:42, Q32K-I48L-V133I-G242S-P256E relative to D08 (protein)
chain: B1 chain with Q32K, I48L, V133I
modifications: TDO variant sequence
B12: TDO_1: Os.TDO variant, SEQ ID NO:28, P35S-H116N relative to D08 (protein)
chain: B1 chain with P35S, H116N, S242G, E256P
modifications: TDO variant sequence

How the values were obtained:
Format in all cases: in vivo
[1] = test system: transgenic soybean plants; test: Response of R0 soybean plants transformed with Round 2 TDO variants to mesotrione; conditions: R0 transgenic soybean sprayed with mesotrione
Source text: The next set of experiments was focused on determining if the balance between improved enzyme stability could outweigh a reduction in activity observed at optimal temperatures in soybean plants. […] To test this hypothesis, the eight variants from Round 2 biochemical analysis described in the preceding paragraph were transformed into soybean through Agrobacterium-mediated transformation, along with three controls. One of the controls (TDO_9) was a variant from the high-throughput screens that had poor activity. Two other controls were the D08 variant and the Os.TDO. R0 transgenic soybean plants were sprayed with the mesotrione herbicide to screen for herbicide tolerance. […] These included the Os.TDO control, the D08 variant and one Round 2 variant. The plants were scored for percent injury as described in the previous examples.

[2] = test system: transgenic cotton plants; test: Mesotrione treatment of cotton plants expressing TDO variants, crop injury; conditions: for Crop Injury (%), 210 g/ha (2X) Mesotrione / Crop Injury (%), 840 g/ha (8X) Mesotrione: R2 cotton sprayed at V3
Method: Cotton is a crop of interest that is often exposed to high temperature growing conditions and thus, selected TDO variants were tested in cotton. Three TDO variants, D08, TDO_6, and TDO_8 were transformed into cotton (along with the Os.TDO control) using similar expression elements in single-cassette vectors or as part of multi-cassette vectors. R2 transgenic cotton plants were then screened for tolerance to mesotrione. Sixteen plants from two events each per construct were sprayed with two rates (2X and 8X) of mesotrione at V3 stage under normal (80° F.) and hot (100° F.) growing conditions. In addition, the effect of heat treatment on TDO accumulation in cotton plants were measured by ELISA. Cotton plants were planted and grown under normal greenhouse conditions (80° F. day/70° F. night) until V3 growth stage. Half of the plants were then moved to a higher temperature growth chamber (100° F. day/82° F. night) for the heat treatment, whereas the remaining half of the plants stayed in the same greenhouse (80° F. day/70° F. night). At day 3 after the plants were placed under different temperature conditions, leaf samples were collected for TDO protein measurement. The plants in 100° F. growth chamber and in 80° F. greenhouse were both sprayed with 2X mesotrione (210 g a.i./ha). Leaf samples were collected again 7 days after mesotrione treatment (DAT: Days After Treatment) for protein assay. Table 5 compares protein levels of the TDO variants in transgenic cotton plants grown under the two tested conditions. The protein levels for the TDO variants were measured at three time points for plants: 1) just before entering the high temperature treatment, 2) three days following placement into control (normal growth temperature) or high temperature (100° F.), and 3) 7 days after a 2X mesotrione spray.

[3] = test system: transgenic soybean plants; test: Mesotrione injury of R0 transgenic soybean plants expressing TDO homologs; conditions: 210 g a.i./ha mesotrione at V3-V4, rated 7-14 days after treatment, mean of all tested events
Method: Plant expression vectors comprising the selected TDO homologs under the control of one of two constitutive promoters were transformed into soybean via an Agrobacterium tumefaciens-mediated method. Following Agrobacterium transformation, R0 transgenic soybean plants containing a single copy of the transgene were identified through molecular characterization and segregation analysis. Transgenic and wild-type (control) plants were grown in 6-inch pots filled with BM7 soilless mix in a growth chamber under the conditions of 28° C./23° C. (light/dark) and a 16 hr light/8 hr dark photoperiod. Plants were fertilized with 15-5-15 liquid fertilizer at the V3-V4 growth stage and treated with 210 g a.i./ha mesotrione (1X=105 g a.i./ha; Callisto®, Syngenta in 1% crop oil). Plants were visually rated 7-14 days after treatment on a scale of 0% to 100%, with 0%=no injury and 100%=plant death, relative to the wild-type controls. The results summarized in Table 2 represent the mean of all tested events (10-15) for each construct.

[4] = promoter Constitutive 2, 3' UTR B

Molecule	R0 % Injury [1] [%]	% Injury [3, 4] [%]	other results
B1	31	–	Crop Injury (%), 210 g/ha (2X) Mesotrione ([2]; Under 80° F.): 0%; Crop Injury (%), 840 g/ha (8X) Mesotrione ([2]; Under 80° F.): 0%; Crop Injury (%), 210 g/ha (2X) Mesotrione ([2]; Under 100° F.): 0%; Crop Injury (%), 840 g/ha (8X) Mesotrione ([2]; Under 100° F.): 0%; injury rates relative to Os.TDO controls ([2]; cotton at the higher temperature): trending even lower than the Os.TDO controls
B2	–	50	–
B3	–	55	–
B4	–	61	–
B5	–	53	–
B6	–	–	% Injury ([3]; promoter Constitutive 1, 3' UTR A): 35%
B7	35	–	–
B8	32	–	–
B9	30	–	–
B10	32	–	–
B11	31	–	Crop Injury (%), 210 g/ha (2X) Mesotrione ([2]; Under 80° F.): 0.25%; Crop Injury (%), 840 g/ha (8X) Mesotrione ([2]; Under 80° F.): 0%; Crop Injury (%), 210 g/ha (2X) Mesotrione ([2]; Under 100° F.): 0.27%; Crop Injury (%), 840 g/ha (8X) Mesotrione ([2]; Under 100° F.): 0%
B12	30	–	–
